B1: DYRK1B (parent)
chain: RFQDLVLRMLEYEPAARISPLGAL

Variants of: B1
Assay: protein stability index of a GFP-peptide fusion (GPS, HEK-293T) (PSI 1-6); higher = more stable
Conditions: c terminus: a fixed tail appended
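Further: lentivirally expressed fusions sorted by FACS into six bins by GFP to DsRed ratio, PSI derived from sequencing read proportions per bin multiplied by bin number.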

| Variant | protein stability index |
| --- | --- |
| RFQDLVLRMLEYEPAARISVLGAL [P20V] | 3.27 |
| RFQDLVLRMLEYEPAARISSLGAL [P20S] | 2.53 |
| RFQDLVLRMLEYEPAARISCLGAL [P20C] | 3.75 |
| RFQDLVLRMLEYEPAARISWLGAL [P20W] | 3.32 |
| RFQDLVLRMLEYEPAARISFLGAL [P20F] | 2.2 |
| RFQDLVLRMLEYEPAARISELGAL [P20E] | 2.84 |
| RFQDLVLRMLEYEPAARISQLGAL [P20Q] | 2.29 |
| RFQDLVLRMLEYEPAARISILGAL [P20I] | 2.64 |
| RFQDLVLRMLEYEPAARISGLGAL [P20G] | 2.01 |
| RFQDLVLRMLEYEPAARISNLGAL [P20N] | 3.12 |
| RFQDLVLRMLEYEPAARISTLGAL [P20T] | 2.1 |
| RFQDLVLRMLEYEPAARISYLGAL [P20Y] | 4.39 |
| RFQDLVLRMHEYEPAARISPLGAL [L10H] | 1.17 |
| RFQDLVLRMEEYEPAARISPLGAL [L10E] | 1.27 |
| RFQDLVLRMAEYEPAARISPLGAL [L10A] | 3.32 |
| RFQDLVLRMGEYEPAARISPLGAL [L10G] | 1.66 |
| RFQDLVLRMDEYEPAARISPLGAL [L10D] | 1.92 |
| RFQDLVLRMIEYEPAARISPLGAL [L10I] | 1.96 |
| RFQDLVLRMPEYEPAARISPLGAL [L10P] | 2.37 |
| RFQDLVLRMMEYEPAARISPLGAL [L10M] | 2.05 |
| RFQDLVLRMQEYEPAARISPLGAL [L10Q] | 1.6 |
| RFQDLVLRMNEYEPAARISPLGAL [L10N] | 1.64 |
| RFQDLVLRMTEYEPAARISPLGAL [L10T] | 2.19 |
| RFQDLVLRMLEYEPAARISPLTAL [G22T] | 3.41 |

| Variant | protein stability index |
| --- | --- |
| RFQDLVLRMLEYEPAARISPLAAL [G22A] | 2.95 |
| RFQDLVLRMLEYEPAARISPLLAL [G22L] | 2.02 |
| RFQDLVLRMLEYEPAARISPLIAL [G22I] | 2.49 |
| RFQDLVLRMLEYEPAARISPLVAL [G22V] | 3.1 |
| RFQDLVLRMLEYEPAARISPLHAL [G22H] | 1.52 |
| RFQDLVLRMLEYEPAARISPLYAL [G22Y] | 1.71 |
| RFQDLVLRMLEYEPAARISPLEAL [G22E] | 3.2 |
| RFQDLVLRMLEYEPAARISPLMAL [G22M] | 2.2 |
| RFQDLVLRMLEYEPAARISPLDAL [G22D] | 2.68 |
| RFQDLVLRMLEYEPAARISPLKAL [G22K] | 2.67 |
| RFQDLVLRMLEYEPAARISPLCAL [G22C] | 1.86 |
| RFQDLVLRMLEYEPAARISPLWAL [G22W] | 2.76 |
| RFQDLVLRMLEYEPAARISPLFAL [G22F] | 2.04 |
| RFQDLVLRMLTYEPAARISPLGAL [E11T] | 3.67 |
| RFQDLVLRMLVYEPAARISPLGAL [E11V] | 3.51 |
| RFQDLVLRMLYYEPAARISPLGAL [E11Y] | 3.21 |
| RFQDLVLRMLHYEPAARISPLGAL [E11H] | 2.96 |
| RFQDLVLRMLLYEPAARISPLGAL [E11L] | 2.25 |
| RFQDLVLRMLNYEPAARISPLGAL [E11N] | 2.21 |
| RFQDLVLRMLQYEPAARISPLGAL [E11Q] | 2.81 |
| RFQDLVLRMLMYEPAARISPLGAL [E11M] | 3.73 |
| RFQDLVLRMLAYEPAARISPLGAL [E11A] | 1.56 |
| RFQDLVLRMLRYEPAARISPLGAL [E11R] | 2.66 |
| RFQDLVLRMLPYEPAARISPLGAL [E11P] | 3.04 |

| Variant | protein stability index |
| --- | --- |
| RFQDLVLRFLEYEPAARISPLGAL [M9F] | 2.77 |
| RFQDLVLRNLEYEPAARISPLGAL [M9N] | 2.33 |
| RFQDLVLRRLEYEPAARISPLGAL [M9R] | 1.86 |
| RFQDLVLRLLEYEPAARISPLGAL [M9L] | 2.7 |
| RFQDLVLRGLEYEPAARISPLGAL [M9G] | 1.33 |
| RFQDLVLRDLEYEPAARISPLGAL [M9D] | 3.29 |
| RFQDLVLRSLEYEPAARISPLGAL [M9S] | 1.09 |
| RFQDLVLRTLEYEPAARISPLGAL [M9T] | 1.83 |
| RFQDLVLRELEYEPAARISPLGAL [M9E] | 1.98 |
| RFQDLVLRKLEYEPAARISPLGAL [M9K] | 1.53 |
| RFQDLVLRHLEYEPAARISPLGAL [M9H] | 2.78 |
| RFQDLVLRMLEYEPPARISPLGAL [A15P] | 2.8 |
| RFQDLVLRMLEYEPQARISPLGAL [A15Q] | 2.04 |
| RFQDLVLRMLEYEPKARISPLGAL [A15K] | 3.43 |
| RFQDLVLRMLEYEPFARISPLGAL [A15F] | 1.95 |
| RFQDLVLRMLEYEPRARISPLGAL [A15R] | 3.6 |
| RFQDLVLRMLEYEPYARISPLGAL [A15Y] | 2.03 |
| RFQDLVLRMLEYEPHARISPLGAL [A15H] | 5.14 |
| RFQDLVLRMLEYEPWARISPLGAL [A15W] | 5.07 |
| RFQDLVLRMLEYEPMARISPLGAL [A15M] | 2.57 |
| RFQDLVLRMLEVEPAARISPLGAL [Y12V] | 3.06 |
| RFQDLVLRMLEQEPAARISPLGAL [Y12Q] | 1.44 |
| RFQDLVLRMLESEPAARISPLGAL [Y12S] | 2.61 |
| RFQDLVLRMLEGEPAARISPLGAL [Y12G] | 1.6 |

| Variant | protein stability index |
| --- | --- |
| RFQDLVLRMLETEPAARISPLGAL [Y12T] | 1.04 |
| RFQDLVLRMLENEPAARISPLGAL [Y12N] | 1.65 |
| RFQDLVLRMLEWEPAARISPLGAL [Y12W] | 2.82 |
| RFQDLVLRMLEPEPAARISPLGAL [Y12P] | 2 |
| RFQDLVLRMLEDEPAARISPLGAL [Y12D] | 1.99 |
| RFQDLVLRMLEMEPAARISPLGAL [Y12M] | 2.22 |
| RFQDLVLRMLEEEPAARISPLGAL [Y12E] | 1.05 |
| RFQDLVLRMLEYEPAARISPAGAL [L21A] | 1.75 |
| RFQDLVLRMLEYEPAARISPSGAL [L21S] | 2.27 |
| RFQDLVLRMLEYEPAARISPDGAL [L21D] | 1.78 |
| RFQDLVLRMLEYEPAARISPRGAL [L21R] | 1.77 |
| RFQDLVLRMLEYEPAARISPMGAL [L21M] | 1.68 |
| RFQDLVLRMLEYEPAARISPKGAL [L21K] | 1.19 |
| RFQDLVLRMLEYEPAARISPPGAL [L21P] | 1.93 |
| RFQDLVLRMLEYEPAARISPFGAL [L21F] | 1.36 |
| RFQDLVLRMLEYEPAARISPIGAL [L21I] | 2.48 |
| RFQDLVLRMLEYEPAARISPEGAL [L21E] | 1.56 |
| RFQDLVLRMLEYEPAARISPVGAL [L21V] | 2.56 |
| RFQDLVLRMLEYEPAARISPTGAL [L21T] | 2 |
| RFQDLVLRMLEYEPAARISPYGAL [L21Y] | 2.98 |
| RFQDLVLRMLEYEPAARISPCGAL [L21C] | 1.98 |
| RFQDLVLRMLEYEPAARISPHGAL [L21H] | 3.73 |

From the supplement of paper PMC10567573
